Test results as given in the supplement of paper PMC7125110.
± gives the standard error. This sample holds only a part of the variants without activity.

B1: glmS ribozyme (parent)
chain: AUAAAAGCGCCAGAACUACAGAAAUGUAGUUGACGAGGAGGAGGUUUAUCGAAUUUUCGGCGGAUGCCUCCAAA

Legend:
Details in all cases: with glucosamine-6-phosphate
glucosamine-6-phosphate [1] = variants of: B1; assay: self-cleavage kobs at 640 uM GlcN6P; higher = faster cleavage; RNA array
In short: (§1)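 Using a hybridised Cy3 probe at 37 °C, barcoded ribozyme variants transcribed in situ by E. coli RNA polymerase on sequenced MiSeq chips were monitored across tiles imaged over ~14 h. The flow contained glucosamine-6-phosphate from 40 μM to 10 mM in HEPES/KCl/Mg(OAc)2 buffer. Signals were normalised to baseline and to non-cleaving reference variants before per-tile medians were fit to one- or two-exponential decays to yield kobs. Weighted Michaelis–Menten fits across concentrations gave kcat and KM.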

glucosamine-6-phosphate [2] = variants of: B1; assay: self-cleavage kobs at 2500 uM GlcN6P; higher = faster cleavage; RNA array
In short: as §1

glucosamine-6-phosphate [3] = variants of: B1; assay: self-cleavage kobs at 10000 uM GlcN6P; higher = faster cleavage; RNA array
In short: as §1

| Variant | self-cleavage kobs at 640 uM GlcN6P (glucosamine-6-phosphate [1]) [s⁻¹] | self-cleavage kobs at 2500 uM GlcN6P (glucosamine-6-phosphate [2]) [s⁻¹] | self-cleavage kobs at 10000 uM GlcN6P (glucosamine-6-phosphate [3]) [s⁻¹] |
| --- | --- | --- | --- |
| G35A U65C U69C | < 1e-05 |  |  |
| U45C U65C G66U C68G | < 1e-05 | < 1e-05 |  |
| C34G U46A U49A | < 1e-05 |  |  |
| A36C G37A A64C G66A | < 1e-05 |  |  |
| G41A G63U U65G C70U | < 1e-05 | < 1e-05 |  |
| A33G A36G G38A | < 1e-05 |  |  |
| G41C G51U A64C | < 1e-05 | < 1e-05 |  |
| A36C G38C G43U U54G U56C | < 1e-05 |  |  |
| A39U A48U U55C G59U | < 1e-05 | < 1e-05 |  |
| A39G C58G G60C | < 1e-05 | < 1e-05 | < 1e-05 |
| A36C A39C A53G | < 1e-05 | < 1e-05 |  |
| C34A A53U C70U | < 1e-05 |  |  |
| C34G G40U U46A | < 1e-05 |  |  |
| U46A A53G U65G | 0.000479 ± 0.00011 |  |  |
| A36U G43U U65A | < 1e-05 | < 1e-05 |  |
| U45C A48C G63U | < 1e-05 | < 1e-05 |  |
| A33U C50G G51A | < 1e-05 |  |  |
| G41U A48U A64C | < 1e-05 | < 1e-05 |  |
| A42C A52U A64G | < 1e-05 | < 1e-05 |  |
| A36C U49G G63A | < 1e-05 | < 1e-05 |  |
| G35A U46G A48G C68A C71U | < 1e-05 | < 1e-05 |  |
| A36C G37A G43U C61G C67A | < 1e-05 | < 1e-05 |  |
| G41U C58G C61U A64U C71U | < 1e-05 |  |  |

| Variant | self-cleavage kobs at 640 uM GlcN6P (glucosamine-6-phosphate [1]) [s⁻¹] | self-cleavage kobs at 2500 uM GlcN6P (glucosamine-6-phosphate [2]) [s⁻¹] | self-cleavage kobs at 10000 uM GlcN6P (glucosamine-6-phosphate [3]) [s⁻¹] |
| --- | --- | --- | --- |
| G37A U45C | 5.03e-05 ± 1.6e-05 | 6.95e-05 ± 1.3e-05 | 0.000173 ± 4.9e-05 |
| G37A G43U G62U G66C C67A | < 1e-05 | < 1e-05 | < 1e-05 |
| G37U G62U | < 1e-05 |  |  |
| G37U C50A G51C | < 1e-05 |  |  |
| G35A U45G U57C | < 1e-05 |  |  |
| U45C U46G C67G | 9.48e-05 ± 2.9e-05 |  |  |
| U46A A48G C50U | < 1e-05 | < 1e-05 |  |
| A33U G41A C58A U65G | < 1e-05 | < 1e-05 |  |
| A42G C58A A64U | < 1e-05 | < 1e-05 |  |
| G38A A42U G60U C71G | < 1e-05 |  |  |
| G44C C68A U69G | < 1e-05 |  |  |
| C34A A53G U56C | < 1e-05 |  |  |
| A36U A39G | < 1e-05 |  |  |
| A36C G60C | < 1e-05 |  |  |
| A36G U47A | < 1e-05 |  |  |
| G35A U47A C50G U54G | 0.000171 ± 6.3e-05 | 0.000152 ± 4.7e-05 |  |
| A42U U57G | < 1e-05 | < 1e-05 |  |
| G35C A36U G40A | < 1e-05 | < 1e-05 |  |
| C34G A36G C71U | < 1e-05 |  |  |
| G40U U45C | 0.000101 ± 2.7e-05 | 0.000729 ± 0.00014 | 0.000329 ± 7e-05 |
| U46A U56C C68A | < 1e-05 | < 1e-05 |  |
| G38A G44U G62U | < 1e-05 | < 1e-05 |  |
| G35U A42U G63C | < 1e-05 |  |  |

| Variant | self-cleavage kobs at 640 uM GlcN6P (glucosamine-6-phosphate [1]) [s⁻¹] | self-cleavage kobs at 2500 uM GlcN6P (glucosamine-6-phosphate [2]) [s⁻¹] | self-cleavage kobs at 10000 uM GlcN6P (glucosamine-6-phosphate [3]) [s⁻¹] |
| --- | --- | --- | --- |
| C34U C70A | 0.00139 ± 0.00062 |  |  |
| A39U G44U U47C G51U | < 1e-05 |  |  |
| C34A C67A C71U | < 1e-05 |  |  |
| A39U C58A A64U | < 1e-05 | < 1e-05 |  |
| G35C G44C | < 1e-05 |  | < 1e-05 |
| G40A A42G A53U | 0.000733 ± 0.00023 | 0.000522 ± 0.00021 |  |
| A39C U45G U56G | 7.85e-05 ± 2.3e-05 |  |  |
| C34U G35C C50U C67A | < 1e-05 | < 1e-05 |  |
| G38U C50A | < 1e-05 | < 1e-05 |  |
| A42C G43U U56A G66U | < 1e-05 |  |  |
| C34A U46G G62C | < 1e-05 |  |  |
| G37U A48G C70U | < 1e-05 |  |  |
| A42U G44C C68U | < 1e-05 | < 1e-05 |  |
| G37U C61G | < 1e-05 |  | < 1e-05 |
| C34U G43U G59C | < 1e-05 | < 1e-05 |  |
| G43C G44U G60U | < 1e-05 |  |  |
| U45G U55C C68U | < 1e-05 |  |  |
| C34A C67A | < 1e-05 |  | < 1e-05 |
| G35U A39U U45G U46C | < 1e-05 | < 1e-05 |  |
| G37C A48C C71G | < 1e-05 |  |  |
| G40C U65G | 9.16e-05 ± 3.6e-05 | 0.00036 ± 0.00012 | 0.000854 ± 0.00025 |
